Measurements: the NTF2 design screens of Basanta et al. (2020)

Assay: protease stability score; higher = more stable; yeast display proteolysis, trypsin and chymotrypsin;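 also: relative to predicted unfolded state with 0 unfolded-like and 1 meaning tenfold more protease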

| Sequence | protease stability score |
| --- | --- |
| SEDDEEVRIALDIQRELFRTGDWRSIEEFLDPNVRVHVGDKEIHGMEELLRYYTHIMNHLGAKHWHVTEYTSIGDFVHIDGEFIQGDKTFHLKIHLLKFNGRWIIHSRIID | 1.22 |
| SEDDEFIRFVSEIIEHILETGDEESLIKLADPNAQFIHIINGREIRYHGRHIFIEWWRRLGIDHLKIEDVRVEQQGDKMRTDFRVILRVGDKTIDSKLHFLIRKVDGKWHVESIKVEHR | 2.27 |
| SEDDEFYKHAFNLMIRVLETGDEELFTKMADPNVRSEINGQDIHGREMLSHIVLEEVRRADHIEFRIDHFRVIGDKVEHDGTKILNVNGVNIELRFHLHSVKVNGKWILKSERVD | 0.869 |
| SEDDEHLREFIEIRLHAIETGDWRRMEHLFDPNVRFEFNGVELHGMETVARRLSRIDHEWSEIRINRHRLFNGVLHLDTRLDLRVHVDGKEIRVEHTTRIVILKFNGRWLITEMTIE | 0.748 |
| SEDDEHMKEIWRILQHSLETGDFHILSRMADPNAKFDIGDKEIVGMHLWIEELLRYKNRQIRVHYHEMRVYDGKIDSRERYDVKYGDKELTTELRVHARKIDGRWVLEDVRVH | 0.668 |
| SEDDEHSRDAFEIFMRLIRTGDWHHLLNLLDPHVRIDFNGREHIGREEATRILVEWRIRNIRLRHYDMVNGRAHFHTESDVEFNGRRDKIEIHMVVLKIDGRWFIHSMIIH | 2.42 |
| SEDDEIKKHVAERWLKRLETGDEKTLSKLLDPDVRLHINGRTLHGREEVVHELHKWYYELGVDHVILRHIDHVNGQLRLHNEIRFENRHTSEILVITKVDGQWIVKYIEIRDH | 1.53 |
| SEDDEILERMLRELIHLIRTGDEDSIREMADPNVRLIINGKEFHGMEEYIKTWHRILERFDHLRHVELHDEHRFDGRVRIWGTLNHRIGDKHTRFTVHIVALKFNGRWILKSEEIT | 1.36 |
| SEDDEITHYILQLWLDLVQTGDEEKLTDLHDPHVRNRINGREKHGRERAAELLSRLKKALGIDHIHRLMIEDFRIQGEKIQLHVRIKQEINGQEFTRSIELILLKINGRWSVESIDIR | 1.42 |
| SEDDEKIERWLHIILRAFETGDERILQELMDPNTRMDINGVEIHGRERVTKELHRIRKELGADHIEVRLTDEKRVNGRLRLHTQLHFHQGNKLIIIESRILFEKYDGKWMIESMSEK | 1.05 |
| SEDDEKLEQIIELLDKVMKTGDERAYNELMDPNTRYQVGDKEFHGMEWWSEIYSRHEKKLGIEKVEVDIENHHVQGDKVTVHGRVNINGREHEYRFVLTKVDGQWRLREENIK | 1.15 |
| SEDDEKLKDFLRMLIEVILTGDEERFFELLDPHARLEYGDKEFHGREVIYHWFFNEFRRIKGLVFRNIHLREHDVVDGRLQIDLEVHIIFNGKTRSHDIHFVATKIDGRWILRTESIK | 2.33 |
| SEDDEKSQEIMHRFIKYYETGDWKRLYELADPNARSYYNGKERHGMDVIRDLIEKVKNVKLHIRRIESDVQGDKINLHLDVEVDIDGQIMTLHDTVHAEKIDGRWRIRIIFLHVK | 1.36 |
| SEDDEKVREAFELWARLVLTGDEEIIEKMVDPHMRIEIGDKELHGRDELRRWIREIRIRDIDVHDVRVQGDKAESDLKVRMDIDGVETRRHTHLIMHKFDGRWIIESIDVR | 1.36 |
| SEDDELAHLFFELFLKLIQTGDEDKLLDLMDPNAKSEYNGVILHGREHKEHWRRRFKNIRVHYRHVEIHFQGNYLHIRIDGSLDINGQEIDSHVRLHTEKVNGKWIVRSMHFHYT | 1.25 |
| SEDDELIKKYIKRWLHDLVTGDEDSLEELIDPNARLDINGKELIGREWVERVTKELRIEHINPRSVRSINGKVEIETEVHVNVNGVKIILDRHLDIHKVNGKWIVKEVRVK | 1.14 |
| SEDDELSKHAFDMLRDSIHTGDEHLNNKLFDPHVRLYYGDKLLIGREHLTRLLFFWAKELRIELRVRHYESQGEKVDIHVELIMRVNGREQKHDVILYLEKVNGRWIMHSIEIR | 0.775 |
| SEDDELVTRMFKVWLHDWITGNEEQIHRMVDPDYRLEIGDKDIHGMEASLHWLRKIKNIQFRFHLEHVDVVNGKAKSEGRYIEEFEGVKIDRDVELYLHIVDGRIKSMSIHKR | 1.29 |
| SEDDEMLKLFFELVHRFHLTGDETNHLNNMDPHARMNAENWRRHGRHALEQLRTRFDHIDHVHLDHYETFDGRLILHVTVDGQFDGVRDRNTLHIVMKKINGRWIMEELRIQ | 1.23 |
| SEDDEQAHRTIEIWLRASRTGNEEELERLADPHDKIEFNGREHHGREEFLKIMKHLRVHHMDVRDRTLIGDKINIDVILDLHFNGRRHIIELTTILVKINGRWFFKSWIFI | 1.21 |
| SEDDERMERLTRILLEALETGDEDALRELIDPNARVDVNGVRDHGWKEVRKLLKELGVDHIKIHDHHIQGEKSRIDGEIHFNGKSERVTILWIMINGRVKFMSVKHT | 1.79 |
| SEDDERMKKLLSDIWRLLMTGDEELWAKLADPNVRVDVNGRERHGREEVVKLLRELRHERRGRREEHHTVEDFRIYGDYSEVDYRYWVVFNGQREDVTMHIHIQVVNGRLKEIEIKMR | 1.51 |
| SEDDERQRWIIEELVKTERTGDEHRRMELADPDYRLEIGDKEVHGMEEASRILHDELFNLGINHMHIKEWRVQGDKVHLEGLMVVGDKTHRVRIHYVIVNGRVKTLKWRID | 1.33 |
| SEDDERSEKAAEKWLHNFVTGDFKEMSDNLDPNTRLHVDGKDFVGMELVLKIFEDLWDHLGVDHVLINDSHVHVIDGKLHSHLDVTEEVNGRRRRVEIIIIAVKVNGRWRQKEVHIMFR | 0.794 |
| SEDDERWEKFMEELERAAHTGDWRFFKKMIDPEVRIDINGKEIIGMDEYIRHEKERLKRLGHTNVDIQIIIHRTERQGDKLDVDTEIRIHIGDKTITFRMTLILIKVNGVWLIKAMIIH | 1.56 |

| Sequence | protease stability score |
| --- | --- |
| SEDDESLKRHIDLLLRVLETGNEEDLFRMIDPDAKMDWNGVDNHGMELIHKVWHELGLSNVRSHTEDFRVVGDKAEIHIRVEFNGRHHRVEIHTLKINGRWRVRRFHIR | 2.4 |
| SEDDETIERASRLLVEDHDTGDWESWEKNADPNMRLVIGDKDVVGRENVVEHLHRLRKKMGVKHVHLRVESIEVQGDKIRQDGRLLIIVNGQELRIEVRIVAIKVNGQWINRMVDVK | 1.08 |
| SEDDETSSKAMHRILEIFETGDWKKLAKLADPNVRLRIDGQDVHGRELFTKIFRTELERFGHEQFEVHKSHEDVQGDKLELHTLVIYGDKRERIEIHSVKFNGVWLISTMRIDRH | 0.935 |
| SEDDETVIRMTHIILHAIFTGDEHITERLMDPHAKVTVGEFDTHGWEELDRFWKEMRMKRLKIRRIDFRWVNGRILSEIVVELDGIVNGRERKITMLIVIIIDKIDGRWVVTEFHFRIE | 1.43 |
| SEDDEWLHNFIERLLHTILTGDEHIFSELADPNVRLDIGDKELHGWHLIVRHYIDEFRQFKGVRVHIRIRRFTQIGDKVHYDGELIFVIGDKTIIRELHLVVVKIDGRWKLEHFEIR | 2.74 |
| SEDDEYSELFVKTWFEILRTGDEEKIRRMLDPDARSTINGKDLHGRERIEEHLHELFLRLGLSNVKVHLHDYRFIGDKLHLHGKLTINGQEFDTKVDAWKFNGRWFMHQIHLR | 1.39 |
| SEDDHELEHAARRHFRDFWTGDWKSISRFLDPDAKVELLVNGQHIEIHGREQIIEQMLRIPNLRFELKRVHTEIYGEKMHVHVRGVVEFDGVREDVVLIFIFEKFNGRWHISKESREFR | 0.35 |
| SEDDHELEKLIRLWYDSVLTGDERTINELFDPNTRLEINGKVLHGMENFHRFVHTFLHHIRLKRIEIEDIKYINGVAHIDSRMVGDINGKDVRYETQFLVQKVDGKWVIKAVIIR | 2.08 |
| SEDDHELKEELKIIMKSSLTGDEDTLNRLADPHARIHQGEFNLHGREEFSRLFVELRMHDIRIEDYEVIDGRVEVDIRLNIHYNGKRYIKVTRSVFRKVDGRWLIEEVRYD | 0.494 |
| SEDDHERHRFLELIKHNHKTGNEENIYRMADPDVRLHIGDKEFHGMEHHMEFLREWLDRLGIDKVEFQVERIHVQGDKINVDVNLNVNGKHYRVILYLIKIDGRWRIKLLEIR | 0.884 |
| SEDDHMAELASRLVHERVKTGDPRVVDELLDPNVRLEYGDKEWHGREEFRKFLRHLRLHDVHIRSYEIQGDKVYIDGRVDGEVNGKRSLLETHIYAKKIDGRWLETSVVMK | 0.561 |
| SEDDHRAHEWFRIVFHWLLTGDEEHFDRYADPHTKVDINGVEFHGREEVRRWIYEIRLKDNRIRSVRAVGEKNESDGHRNGHIGDKHIVTDVEVRLHVVDGRIKSIHIIIH | 0.981 |
| SEDDKMQEIAVELLEHTLKTGDEHTSKKLVDPHVRLQIGDKEHHGRDEVTRWLTELAQRADHMHIEIKDMFNVNGVVIMHGTLKIHIGDKELRLDVEWIILKYNGKWLIHSIHIR | 1.94 |
| SEDDKREQDYHHYMMEIILTGDFKELFDLADPNVRLRIGDKHFHGRERMLDWYKHLSDRYKNARIHLHKKDYIGEKVIFHEIIHWNGKEVELHINMVIVNGRIRSIHVEDNER | 1.39 |
| SEDDKRLREIADLWKHAFLTGDFNLIHKLMDPHARWVVNGQHVHGMEEWEHFLERIDVFRIESSRTDHIEVYGDKVQIDGHSNVKIQIGDKKIDLITRMEIRLIIINGRYHQVEHIVR | 0.707 |
| SEDDKVVEEIARLWLHWVLTGDEEHLRELLDPHVRLHIDGRTYIGREEFLHKFHELRIHRFELKSIHVIGDKAQVDGHQDYKYNGKRIHLDTKVDLVVVDGVMHEIHIHLK | 1.78 |
| SEDDNLNEWMMRVWLTTLRTGDEKNTERLLDPNARLHVGDKDFHGRELLTKHFYDEVETLGFKHSELKRLLYQGEKMIIHVEVNINGVDIHIDVHIRKIDGRWYIHQVHVR | 2.14 |
| SEDDNMAEHVLRYFIEHHLTGDFDSILKLMDPNMRLEVNGREHWGRKRWSEHLLRMGFDHVDIEEHRINSYGNFAYEIIHGRYHINGQEINITLIINVEKVNGKWIIREVTIVKR | 1.74 |
| SEDDQLVRELMRRIMKNIMTGDEEKHLNLVDPHARTIFDGREYHGRELYTMVFRILYNRIDHWTDLKVEHVSIYDGVIEIHVRADVDINGKRTEITMIIFVNKVNGRWIIEYVVYS | 1.37 |
| SEDDRDAEKMSKDWIHLMLTGDEDHLRELLDPNVRMEQGDKEFIGRELLVEVFSRTVKHLGIKHIQLEESRTNVQGEKVIVILIMDYRAENRRVEFHIHLIVDKVNGRWLVQSVRFRFK | 1.25 |
| SEDDRDANNMREILQHLWFTGNEEEFLRLLDPDTLFHVNGQQKVGRERVEELLHHLLEKLGADHEEIHDWEVRLQGDKLDIHVHIRLIIGDKEFRIHIDFHIYKIDGRWRIHSVKLEIK | 2.1 |
| SEDDRDSKEAKHLLHELIRTGDEDELVKLLDPNMIIIVGDKEYIGWEQAVRLLRELNRRFDHVELRFRDIEIQGEWVDTDIELIYRFDGRETRIDTRFIAYKVDGRWFNHHIEIK | 0.582 |
| SEDDRENHRFMEQFLHDWETGDEDSLRKLADPDVKVRINGVDLHGWSFFEDYLRRVDHIDDFKIDHVEIQGDKIKIHGQQHGRIDGRRDTYKVQNFFIKIDGKWRLKMVINR | 1.34 |
| SEDDSDLEEYLRLWVKAWMTGDEDLLRTLLDPHTRFQSHVNGKEVERHGMEVVSHWLRKFKNIRFEVHHVHVVNGVLYHETRVKFDGVRIETELNAIVVDGKNKFLNIHIK | 0.299 |
| SEDEDAFNELLKIHVEALHTGDWRSIRELLDPNARVRIDGKEYVGRESVEEHLRRIKNLTIHEIRIDDIRIQGDYVHVDGHVRGHFNGQEELHHVEFIMLKVNGRWRIKEIRIK | 2.26 |
